The labels stand for the following.
B1: POU domain, class 3, transcription factor 4, residues 280 to 335; numbered along this chain, P49335 (parent)
chain: KKRTSIEVSVKGVLETHFLKCPKPAAQEISSLADSLQLEKEVVRVWFCNRRQKEKR

± gives the uncertainty stated by the source.

The variants in the data set derive from B1. Put plainly: abundance fitness (aPCA) (normalised: wild type 0, dead -1); higher = more abundant; growth selection in yeast, the domain comes from the species named. Particulars: Homo sapiens.
Regarding KKRTSIEVSVKGVLETHFLKCPKPAAQEISSLADSLQLEKEVVRVWFCTRRQKEKR, the abundance fitness was -0.363 ± 0.14.

For KKRTSIEVSVKGVLETHFLKCPKPAAQEISSLADSLQLEKEVVRVWFCWRRQKEKR, the abundance fitness is -0.885 ± 0.21.

As to KKRTSIEVSVKGVLETHFLKCPKPAAQEISSLADSLQLEKEVVRVWFCSRRQKEKR, the abundance fitness was -0.308 ± 0.14.

Take KKRTSIEVSVKGVLETHFLKCPKPAAQEISSLADSLQLEKEVVRVWFCYRRQKEKR: the abundance fitness is -0.752 ± 0.23.

Take KKRTSIEVSVKGVLETHFLKCPKPAAQEISSLADSLQLEKEVVRVWFCQRRQKEKR: the abundance fitness stood at 0 ± 0.16.

Consider KKRTSIEVSVKGVLETHFLKCPKPAAQEISSLADSLQLEKEVVRVWFCNRCQKEKR, for which the abundance fitness is -0.506 ± 0.24.

Regarding KKRTSIEVSVKGVLETHFLKCPKPAAQEISSLADSLQLEKEVVRVWFCNRQQKEKR, the abundance fitness is -0.237 ± 0.18.

For the variant KKRTSIEVSVKGVLETHFLKCPKPAAQEISSLADSLQLEKEVVRVWFCNRVQKEKR, the abundance fitness was -0.424 ± 0.13.

Regarding KKRTSIEVSVKGVLETHFLKCPKPAAQEISSLADSLQLEKEVVRVWFCNRKQKEKR, the abundance fitness was -1.04 ± 0.35.

Take KKRTSIEVSVKGVLETHFLKCPKPAAQEISSLADSLQLEKEVVRVWFCNRLQKEKR: the abundance fitness was -0.305 ± 0.14.

For KKRTSIEVSVKGVLETHFLKCPKPAAQEISSLADSLQLEKEVVRVWFCNRGQKEKR, the abundance fitness was -0.804 ± 0.14.

Regarding KKRTSIEVSVKGVLETHFLKCPKPAAQEISSLADSLQLEKEVVRVWFCNRWQKEKR, the abundance fitness is -0.221 ± 0.17.

In the case of KKRTSIEVSVKGVLETHFLKCPKPAAQEISSLADSLQLEKEVVRVWFCNRAQKEKR, the abundance fitness is -0.309 ± 0.14.

As to KKRTSIEVSVKGVLETHFLKCPKPAAQEISSLADSLQLEKEVVRVWFCNRDQKEKR, the abundance fitness was -0.839 ± 0.34.

As for KKRTSIEVSVKGVLETHFLKCPKPAAQEISSLADSLQLEKEVVRVWFCNRSQKEKR, the abundance fitness is -0.549 ± 0.18.

For KKRTSIEVSVKGVLETHFLKCPKPAAQEISSLADSLQLEKEVVRVWFCNRTQKEKR, the abundance fitness is -0.848 ± 0.33.

For KKRTSIEVSVKGVLETHFLKCPKPAAQEISSLADSLQLEKEVVRVWFCNRPQKEKR, the abundance fitness is -0.834 ± 0.25.

For KKRTSIEVSVKGVLETHFLKCPKPAAQEISSLADSLQLEKEVVRVWFCNRYQKEKR, the abundance fitness was -0.193 ± 0.47.

With KKRTSIEVSVKGVLETHFLKCPKPAAQEISSLADSLQLEKEVVRVWFCNRMQKEKR, the abundance fitness was -0.243 ± 0.21.

KKRTSIEVSVKGVLETHFLKCPKPAAQEISSLADSLQLEKEVVRVWFCNRNQKEKR: the abundance fitness is -0.628 ± 0.37.

In the case of KKRTSIEVSVKGVLETHFLKCPKPAAQEISSLADSLQLEKEVVRVWFCNREQKEKR, the abundance fitness was -0.258 ± 0.16.

Consider KKRTSIEVSVKGVLETHFLKCPKPAAQEISSLADSLQLEKEVVRVWFCNRRQKFKR, for which the abundance fitness is -0.836 ± 0.44.

KKRTSIEVSVKGVLETHFLKCPKPAAQEISSLADSLQLEKEVVRVWFCNRRQKAKR: the abundance fitness is -0.788 ± 0.2.

As to KKRTSIEVSVKGVLETHFLKCPKPAAQEISSLADSLQLEKEVVRVWFCNRRQKMKR, the abundance fitness was -0.819 ± 0.3.

For KKRTSIEVSVKGVLETHFLKCPKPAAQEISSLADSLQLEKEVVRVWFCNRRQKSKR, the abundance fitness is -0.679 ± 0.18.

On to KKRTSIEVSVKGVLETHFLKCPKPAAQEISSLADSLQLEKEVVRVWFCNRRQKCKR, for which the abundance fitness is -0.897 ± 0.3.

KKRTSIEVSVKGVLETHFLKCPKPAAQEISSLADSLQLEKEVVRVWFCNRRQKLKR: the abundance fitness is -0.787 ± 0.16.

Consider KKRTSIEVSVKGVLETHFLKCPKPAAQEISSLADSLQLEKEVVRVWFCNRRQKVKR, for which the abundance fitness was -0.634 ± 0.17.

Turning to KKRTSIEVSVKGVLETHFLKCPKPAAQEISSLADSLQLEKEVVRVWFCNRRQKTKR, the abundance fitness was -1.06 ± 0.4.

For the variant KKRTSIEVSVKGVLETHFLKCPKPAAQEISSLADSLQLEKEVVRVWFCNRRQKWKR, the abundance fitness is -0.902 ± 0.25.

Turning to KKRTSIEVSVKGVLETHFLKCPKPAAQEISSLADSLQLEKEVVRVWFCNRRQKGKR, the abundance fitness is -0.808 ± 0.16.

Consider KKRTSIEVSVKGVLETHFLKCPKPAAQEISSLADSLQLEKEVVRVWFCNRRQKHKR, for which the abundance fitness was -0.906 ± 0.33.

With KKRTSIEVSVKGVLETHFLKCPKPAAQEISSLADSLQLEKEVVRVWFCNRRQKKKR, the abundance fitness is -0.591 ± 0.46.

Regarding KKRTSIEVSVKGVLETHFLKCPKPAAQEISSLADSLQLEKEVVRVWFCNRRQKQKR, the abundance fitness is -0.259 ± 0.24.

With KKRTSIEVSVKGVLETHFLKCPKPAAQEISSLADSLQLEKEVVRVWFCNRRQYEKR, the abundance fitness was -0.616 ± 0.31.

For the variant KKRTSIEVSVKGVLETHFLKCPKPAAQEISSLADSLQLEKEVVRVWFCNRRQTEKR, the abundance fitness is -0.428 ± 0.2.

Take KKRTSIEVSVKGVLETHFLKCPKPAAQEISSLADSLQLEKEVVRVWFCNRRQSEKR: the abundance fitness was -0.318 ± 0.15.

On to KKRTSIEVSVKGVLETHFLKCPKPAAQEISSLADSLQLEKEVVRVWFCNRRQQEKR, for which the abundance fitness was -0.258 ± 0.24.

As to KKRTSIEVSVKGVLETHFLKCPKPAAQEISSLADSLQLEKEVVRVWFCNRRQWEKR, the abundance fitness was -0.888 ± 0.33.

For the variant KKRTSIEVSVKGVLETHFLKCPKPAAQEISSLADSLQLEKEVVRVWFCNRRQPEKR, the abundance fitness is -0.884 ± 0.25.

With KKRTSIEVSVKGVLETHFLKCPKPAAQEISSLADSLQLEKEVVRVWFCNRRQGEKR, the abundance fitness was -0.826 ± 0.2.

For KKRTSIEVSVKGVLETHFLKCPKPAAQEISSLADSLQLEKEVVRVWFCNRRQEEKR, the abundance fitness was 0.194 ± 0.18.

With KKRTSIEVSVKGVLETHFLKCPKPAAQEISSLADSLQLEKEVVRVWFCNRRQCEKR, the abundance fitness was -0.428 ± 0.35.

Regarding KKRTSIEVSVKGVLETHFLKCPKPAAQEISSLADSLQLEKEVVRVWFCNRRQNEKR, the abundance fitness is -0.544 ± 0.41.

In the case of KKRTSIEVSVKGVLETHFLKCPKPAAQEISSLADSLQLEKEVVRVWFCNRRQFEKR, the abundance fitness was -0.027 ± 0.29.

With KKRTSIEVSVKGVLETHFLKCPKPAAQEISSLADSLQLEKEVVRVWFCNRRQAEKR, the abundance fitness is -0.066 ± 0.13.

Turning to KKRTSIEVSVKGVLETHFLKCPKPAAQEISSLADSLQLEKEVVRVWFCNRRQMEKR, the abundance fitness is -0.049 ± 0.29.

The values above are taken from the Human Domainome abundance scans (Beltran et al. 2025).
